In paper PMC9106845 (2022):

Target: T1, A02_YLQ peptide on HLA-A*02:01 (human)
T1 peptide: YLQPRTFLL
Assay: multimer staining

B1: 839 (TCR)
alpha TRAV12-1 TRAJ47 CDR3: CVVNRADKLVF
beta TRBV7-9 TRBJ2-2 CDR3: CASSDANTGELFF
  binding result: recognises
